Assay results from paper PMC5587734.

Columns and labels:
MBD2 MBD+IDR (chicken) = MBD2 MBD+IDR (chicken) (chicken, UniProt Q5EFL0 1-117); test: NMR
MBD2 MBD (chicken) = MBD2 MBD (chicken) (chicken, UniProt Q5EFL0 1-71); test: NMR

B1: INV mCpG DNA (dsDNA)
DNA 1: GGACCGACTC
DNA 2: GAGTCGGTCC
modifications: 5mC at position 5 of strand 1; complement methylation implied
Q: Does B1 bind (MBD2 MBD+IDR (chicken))?
A: binds

Q: Does B1 bind (MBD2 MBD (chicken))?
A: binds
